# Experimental data reported in PMC10723112 (Nature chemical biology, 2023).
# Non-standard residues stand in square brackets, D forms with d. No end group written: not given here. pY = N[C@@H](Cc1ccc(OP(=O)(O)O)cc1)C(=O)O
# What was measured:
# [1] = molecular target: 5-FAM-SMG9 peptide (human) (UniProt Q9H0W8); test: fluorescence polarisation
# OGT = molecular target: T1, OGT (Homo sapiens, UniProt O15294); test: Competitive fluorescence polarization; details: FP competition with 5-FAM-SMG9 for OGT binding, n=3
# T1 sequence (O15294 1-1046): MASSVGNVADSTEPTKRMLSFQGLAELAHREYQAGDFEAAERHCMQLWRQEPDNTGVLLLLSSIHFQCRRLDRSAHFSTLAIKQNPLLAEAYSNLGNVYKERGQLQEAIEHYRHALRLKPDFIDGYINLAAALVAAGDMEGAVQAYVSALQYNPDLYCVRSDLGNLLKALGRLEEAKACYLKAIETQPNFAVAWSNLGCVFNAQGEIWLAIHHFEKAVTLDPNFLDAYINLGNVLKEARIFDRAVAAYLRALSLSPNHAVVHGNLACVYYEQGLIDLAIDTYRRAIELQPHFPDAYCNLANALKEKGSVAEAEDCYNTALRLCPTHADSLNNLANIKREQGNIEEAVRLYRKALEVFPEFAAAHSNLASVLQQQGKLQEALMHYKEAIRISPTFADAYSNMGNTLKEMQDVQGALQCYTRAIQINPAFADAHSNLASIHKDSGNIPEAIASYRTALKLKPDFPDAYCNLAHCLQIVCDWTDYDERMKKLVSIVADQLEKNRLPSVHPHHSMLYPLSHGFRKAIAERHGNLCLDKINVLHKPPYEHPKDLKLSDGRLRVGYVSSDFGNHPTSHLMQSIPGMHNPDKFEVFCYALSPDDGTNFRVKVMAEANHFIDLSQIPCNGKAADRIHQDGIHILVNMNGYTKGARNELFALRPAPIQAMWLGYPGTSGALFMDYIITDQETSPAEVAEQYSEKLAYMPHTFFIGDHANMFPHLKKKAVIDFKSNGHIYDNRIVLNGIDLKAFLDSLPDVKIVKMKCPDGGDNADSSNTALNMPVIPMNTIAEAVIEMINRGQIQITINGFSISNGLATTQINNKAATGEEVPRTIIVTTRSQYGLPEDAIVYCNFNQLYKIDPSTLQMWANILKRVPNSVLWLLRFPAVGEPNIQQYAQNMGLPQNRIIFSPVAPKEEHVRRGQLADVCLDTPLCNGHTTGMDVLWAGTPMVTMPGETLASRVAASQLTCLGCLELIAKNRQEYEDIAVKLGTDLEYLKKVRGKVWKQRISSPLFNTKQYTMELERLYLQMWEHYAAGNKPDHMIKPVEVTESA
fold shift of EC50 against WT OGT [1],Substance,peptide binding to OGT (OGT)
> 10 fold,OGT F723E (enzyme),
> 10 fold,OGT I734R (enzyme),
> 10 fold,OGT N791A (enzyme),
,SMG9 pY147: phosphorylated SMG9 peptide (pY147) (QRPTQPV[pY]QIQNRGMG),"disrupted peptide binding, to a similar degree as Y147F"
